Reference: patent US9260500B2, “Peptide and use thereof” (Takeda Pharmaceutical Company Limited, priority 2009, dated 2016)
Non-standard residues stand in square brackets, D forms with d. *: point of attachment. X9 = (cis-2,6-dimethylmorpholin-4-yl)carbonyl, C[C@@H]1CN(C(=O)*)C[C@H](C)O1; X2 = (tetrahydro-2H-pyran-4-ylmethyl)carbamoyl, O=C(NCC1CCOCC1)*; X7 = (tetrahydro-2H-pyran-4-yl)carbamoyl, O=C(NC1CCOCC1)*; (carboxymethyl)carbamoyl = O=C(O)CNC(=O)*; Tetrahydropyran4carbonyl = O=C(C1CCOCC1)*; 4Pal = N[C@@H](Cc1ccncc1)C(=O)O; dHyp = O=C(O)[C@H]1C[C@H](O)CN1; Cha = N[C@@H](CC1CCCCC1)C(=O)O; Iva = CC[C@](C)(N)C(=O)O; Aib = CC(C)(N)C(=O)O

Legend:
male C57EL/6J mice = test: 3-Days Continuous Subcutaneous Administration Test-1 (food intake suppressing activity); format: in vivo, mouse; details: 0.03 mg/kg/day, subcutaneous Alzet pump, food consumption over 3 days; relative to food intake suppression rate for PYY(3-36) (1 mg/kg/day) taken as 100%
Outline: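 Male […] mice, 12-13 weeks, received compound at 0.03 mg/kg/day by subcutaneous osmotic pump (50% DMSO vehicle), housed singly with free food access. Food consumed over 3 days measured; suppression expressed relative to PYY(3-36) (1 mg/kg/day) set as 100%.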

human Y2 receptor [1] = molecular target: T1, human Y2 receptor (Homo sapiens, UniProt P49146); test: Receptor Binding Assay (RBA) for Human Y2, [125I]-PYY displacement on hY2R/CHO membrane fraction; details: IC50 of test compound/IC50 of PYY(3-36) (PYY(3-36) taken as 1)
T1 construct: expressed in transfected cells; membrane fraction
T1 sequence (P49146 1-381): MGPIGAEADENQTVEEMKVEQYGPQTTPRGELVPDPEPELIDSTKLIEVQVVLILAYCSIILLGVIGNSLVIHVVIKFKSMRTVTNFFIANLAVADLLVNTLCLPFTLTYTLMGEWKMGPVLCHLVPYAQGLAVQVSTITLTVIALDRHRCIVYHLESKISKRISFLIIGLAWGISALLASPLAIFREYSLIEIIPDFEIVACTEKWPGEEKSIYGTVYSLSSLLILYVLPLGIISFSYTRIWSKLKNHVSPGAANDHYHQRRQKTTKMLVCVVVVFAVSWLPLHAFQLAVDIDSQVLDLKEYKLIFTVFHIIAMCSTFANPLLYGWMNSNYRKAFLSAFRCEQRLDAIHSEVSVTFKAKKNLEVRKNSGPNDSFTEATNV
Outline: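 hY2R stably expressed in CHO/dhfr− cells; membrane fraction prepared from cells disrupted in 10 mM NaHCO3, 5 mM EDTA buffer with protease inhibitors. Binding read as displacement of [125I]-PYY.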

human Y2 receptor [2] = molecular target: T1, human Y2 receptor; test: Human Y2 Receptor G Protein Binding Assay (GBA), [35S]GTPγS; format: biochemical; details: EC50 of test compound/EC50 of PYY(3-36) (PYY3-36 taken as 1), hY2R/CHO membrane fraction
Outline: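 Agonism measured as [35S]GTPγS binding, read by GF/C filtration and scintillation counting after 120 min at room temperature, using human Y2 membranes at 1 μg protein/mL in pH 7.4 Tris/MgCl2/NaCl/GDP buffer. Compound serially diluted 100 μM–1 nM; EC50 normalized to PYY(3-36) (ratio = compound/PYY).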

Row | Substance | food intake suppression rate (%) (male C57EL/6J mice) | RBA IC50 Ratio (human Y2 receptor [1]) | GBA EC50 Ratio (human Y2 receptor [2])
1 | (Carboxymethyl)carbamoyl-[D-Pro24, Pya(4)26, Cha27,36, Aib28,31, Lys30]-PYY(23-36) ({(carboxymethyl)carbamoyl}-S[dP]R[4Pal][Cha][Aib]NK[Aib]TRQR[Cha]-NH2; ends and bridges not checked) [compound No. 287] | 42% | 1.2 | 1.2
2 | (Tetrahydro-2H-pyran-4-yl)carbamoyl-[D-Pro24, Iva25, Pya(4)26, Cha27,36, Aib28,31, Lys30]-PYY(23-36) (X7-S[dP][Iva][4Pal][Cha][Aib]NK[Aib]TRQR[Cha]-NH2; SMILES CC[C@](C)(NC(=O)[C@H]1CCCN1C(=O)[C@H](CO)NC(=O)NC1CCOCC1)C(=O)N[C@@H](Cc1ccncc1)C(=O)N[C@@H](CC1CCCCC1)C(=O)NC(C)(C)C(=O)N[C@@H](CC(N)=O)C(=O)N[C@@H](CCCCN)C(=O)NC(C)(C)C(=O)N[C@H](C(=O)N[C@@H](CCCNC(=N)N)C(=O)N[C@@H](CCC(N)=O)C(=O)N[C@@H](CCCNC(=N)N)C(=O)N[C@@H](CC1CCCCC1)C(N)=O)[C@@H](C)O) [compound No. 330] | 36% | 1.7 | 1.8
3 | (Tetrahydro-2H-pyran-4-yl)carbonyl-[D-Pro24, Iva25, Pya(4)26, Cha27,36, Aib28,31, Lys30]-PYY(23-36) (Tetrahydropyran4carbonyl-S[dP][Iva][4Pal][Cha][Aib]NK[Aib]TRQR[Cha]-NH2; SMILES CC[C@](C)(NC(=O)[C@H]1CCCN1C(=O)[C@H](CO)NC(=O)C1CCOCC1)C(=O)N[C@@H](Cc1ccncc1)C(=O)N[C@@H](CC1CCCCC1)C(=O)NC(C)(C)C(=O)N[C@@H](CC(N)=O)C(=O)N[C@@H](CCCCN)C(=O)NC(C)(C)C(=O)N[C@H](C(=O)N[C@@H](CCCNC(=N)N)C(=O)N[C@@H](CCC(N)=O)C(=O)N[C@@H](CCCNC(=N)N)C(=O)N[C@@H](CC1CCCCC1)C(N)=O)[C@@H](C)O) [compound No. 342] | 36% | 3.3 | 1.9
4 | (Tetrahydro-2H-pyran-4-yl)carbonyl-[D-Pro24, Pya(4)26, Cha27,36, Aib28,31, Lys30]-PYY(23-36) (Tetrahydropyran4carbonyl-S[dP]R[4Pal][Cha][Aib]NK[Aib]TRQR[Cha]-NH2; SMILES C[C@@H](O)[C@H](NC(=O)C(C)(C)NC(=O)[C@H](CCCCN)NC(=O)[C@H](CC(N)=O)NC(=O)C(C)(C)NC(=O)[C@H](CC1CCCCC1)NC(=O)[C@H](Cc1ccncc1)NC(=O)[C@H](CCCNC(=N)N)NC(=O)[C@H]1CCCN1C(=O)[C@H](CO)NC(=O)C1CCOCC1)C(=O)N[C@@H](CCCNC(=N)N)C(=O)N[C@@H](CCC(N)=O)C(=O)N[C@@H](CCCNC(=N)N)C(=O)N[C@@H](CC1CCCCC1)C(N)=O) [compound No. 324] | 42% | 1.1 | 0.71
5 | (Tetrahydro-2H-pyran-4-ylmethyl)carbamoyl-[D-Pro24, Iva25, Pya(4)26, Cha27,36, Aib28,31, Lys30]-PYY(23-36) (X2-S[dP][Iva][4Pal][Cha][Aib]NK[Aib]TRQR[Cha]-NH2; SMILES CC[C@](C)(NC(=O)[C@H]1CCCN1C(=O)[C@H](CO)NC(=O)NCC1CCOCC1)C(=O)N[C@@H](Cc1ccncc1)C(=O)N[C@@H](CC1CCCCC1)C(=O)NC(C)(C)C(=O)N[C@@H](CC(N)=O)C(=O)N[C@@H](CCCCN)C(=O)NC(C)(C)C(=O)N[C@H](C(=O)N[C@@H](CCCNC(=N)N)C(=O)N[C@@H](CCC(N)=O)C(=O)N[C@@H](CCCNC(=N)N)C(=O)N[C@@H](CC1CCCCC1)C(N)=O)[C@@H](C)O) [compound No. 340] | 27% | 1.7 | 1.9
6 | (Tetrahydro-2H-pyran-4-ylmethyl)carbamoyl-[D-Pro24, Pya(4)26, Cha27,36, Aib28,31, Lys30]-PYY(23-36) (X2-S[dP]R[4Pal][Cha][Aib]NK[Aib]TRQR[Cha]-NH2; SMILES C[C@@H](O)[C@H](NC(=O)C(C)(C)NC(=O)[C@H](CCCCN)NC(=O)[C@H](CC(N)=O)NC(=O)C(C)(C)NC(=O)[C@H](CC1CCCCC1)NC(=O)[C@H](Cc1ccncc1)NC(=O)[C@H](CCCNC(=N)N)NC(=O)[C@H]1CCCN1C(=O)[C@H](CO)NC(=O)NCC1CCOCC1)C(=O)N[C@@H](CCCNC(=N)N)C(=O)N[C@@H](CCC(N)=O)C(=O)N[C@@H](CCCNC(=N)N)C(=O)N[C@@H](CC1CCCCC1)C(N)=O) [compound No. 325] | 47% | 0.82 | 0.7
7 | (cis-2,6-Dimethylmorpholin-4-yl)carbonyl-[D-Pro24, Pya(4)26, Cha27,36, Aib28,31, Lys30]-PYY(23-36) (X9-S[dP]R[4Pal][Cha][Aib]NK[Aib]TRQR[Cha]-NH2; SMILES C[C@@H]1CN(C(=O)N[C@@H](CO)C(=O)N2CCC[C@@H]2C(=O)N[C@@H](CCCNC(=N)N)C(=O)N[C@@H](Cc2ccncc2)C(=O)N[C@@H](CC2CCCCC2)C(=O)NC(C)(C)C(=O)N[C@@H](CC(N)=O)C(=O)N[C@@H](CCCCN)C(=O)NC(C)(C)C(=O)N[C@H](C(=O)N[C@@H](CCCNC(=N)N)C(=O)N[C@@H](CCC(N)=O)C(=O)N[C@@H](CCCNC(=N)N)C(=O)N[C@@H](CC2CCCCC2)C(N)=O)[C@@H](C)O)C[C@H](C)O1) [compound 269] | 11% | 0.91 | 0.65
8 | Ac-[Aib24,28,31, Pya(4)26, Cha27,36, Lys30]-PYY(23-36) (Ac-S[Aib]R[4Pal][Cha][Aib]NK[Aib]TRQR[Cha]-NH2; SMILES CC(=O)N[C@@H](CO)C(=O)NC(C)(C)C(=O)N[C@@H](CCCNC(=N)N)C(=O)N[C@@H](Cc1ccncc1)C(=O)N[C@@H](CC1CCCCC1)C(=O)NC(C)(C)C(=O)N[C@@H](CC(N)=O)C(=O)N[C@@H](CCCCN)C(=O)NC(C)(C)C(=O)N[C@H](C(=O)N[C@@H](CCCNC(=N)N)C(=O)N[C@@H](CCC(N)=O)C(=O)N[C@@H](CCCNC(=N)N)C(=O)N[C@@H](CC1CCCCC1)C(N)=O)[C@@H](C)O) [compound No. 240] | 36% | 0.81 | 1.1
9 | Ac-[D-Hyp24, Iva25,28, Pya(4)26, Cha27,36, Lys30, Aib31]-PYY(23-36) (Ac-S[dHyp][Iva][4Pal][Cha][Iva]NK[Aib]TRQR[Cha]-NH2; ends and bridges not checked) [compound No. 298] | 56% | 0.86 | 1.0
10 | Ac-[D-Hyp24, Iva25, Pya(4)26, Cha27,36, Aib28,31, Lys30]-PYY(23-36) (Ac-S[dHyp][Iva][4Pal][Cha][Aib]NK[Aib]TRQR[Cha]-NH2; SMILES CC[C@](C)(NC(=O)[C@H]1C[C@H](O)CN1C(=O)[C@H](CO)NC(C)=O)C(=O)N[C@@H](Cc1ccncc1)C(=O)N[C@@H](CC1CCCCC1)C(=O)NC(C)(C)C(=O)N[C@@H](CC(N)=O)C(=O)N[C@@H](CCCCN)C(=O)NC(C)(C)C(=O)N[C@H](C(=O)N[C@@H](CCCNC(=N)N)C(=O)N[C@@H](CCC(N)=O)C(=O)N[C@@H](CCCNC(=N)N)C(=O)N[C@@H](CC1CCCCC1)C(N)=O)[C@@H](C)O) [compound No. 297] | 45% | 1.5 | 1.4
